Measurements taken from the DeepSol protein solubility set.

Test: soluble on expression in E. coli; label from the status in PepcDB or PDB records

| Sequence | soluble on expression in E. coli |
| --- | --- |
| MIIRDENYFTDKYELTRTHSEVLEAVKVVKPGKTLDLGCGNGRNSLYLAANGYDVDAWDKNAMSIANVERIKSIENLDNLHTRVVDLNNLTFDRQYDFILSTVVLMFLEAKTIPGLIANMQRCTKPGGYNLIVAAMDTADYPCTVGFPFAFKEGELRRYYEGWERVKYNEDVGELHRTDANGNRIKLRFATMLARKKLEHHHHHH | not soluble |
| MAHHHHHHMYDSRSSGVHDVAPRDGVDFMYEGPQQVLPGAHPLPLFHPDNSVTRPPVSPYLPSPQRPHPYFTTELPELPHFQTTRPIVYTVGTMKQRIVAPVFDLANNVTHTRELDPFIFGFYPETEEMAKNLSYWLVRCQNFSSKWDYENREIWRKAKKNWPNTGMGMARVGDRKNHAHPWGAHSKPVKPWNLLMPTMDVKTWSKSNRMLVTLKMLQGKLQIVERLTLPEPTQEAYLQLCRTMGWDVRHKGGGALFMDGGSRLTPSSEYDRAFFFGSFFNGRNKLVRPTLLCDEPYDYNRTSSKARTKGPKGQKNPIPINRFNAYDALTHDTLIITEGALLQLEDEMYTHKLAMLPPHIRAQLPERGFLDSEVLGDVPPALQTVQMEAAARTEEAEQAMYAPYYDNPYHPWQDEGEASYAVDAVEGTVQRYIKSRKTSWAMLS | not soluble |
| MKSQFNQKLEDKFQRNAEQVVSLVKERMQLYENALWSSVAYIDADETDITHTKWLAYSKSLKIDLTYPGINGIGIIYNIQADQLDDYIEKQRVLRPNYAIHPSHNESEYWPITYVEPAAPNKKAIGLDMAFETNRYSSIKKARDTGVAQLTGPITLVQDAKKTPGFLFYTPFYKNGTKPESTEARRDAIDGVTYAPFIMKNLMQGTLAEKNRHVSIQIRDAGDLLFDDHDDESVLDADANPLFTKEQDISLYGRTWSFTIQSNLDFRDESAANQLEHHHHHH | not soluble |
| MDKNRVFGQRLRQSIQNYFSSPWLLYTAKAEALLDLRDDEAMLNEMEAVGELPMALEYESLTDVQTQIVTAIQAELAHFRNTAQPINLGAVLQEQLARYPQSRHFDVARIIVDQAVKLGMASQDHQAVYPVWQPIDDFSAAVQAHLIDQYDK | soluble |
| MDEFEMIKRNTSEIISEEELREVLKKDEKSAIIGFEPSGKIHLGHYLQIKKMIDLQNAGFDIIILLADLFAYLNQKGELDEIRKIGDYNKKVFEAMGLKAKYVYGSSFMLDKDYTLNVYRLALKTTLKRARRSMELIAREDENPKVAEVIYPIMQVNPLHYEGVDVAVGGMEQRKIHMLARELLPKKVVCIHNPVLTGLDGEGKMSSSKGNFIAVDDSPEEIRAKIKKAYCPAGVVEGNPIMEIAKYFLEYPLTIKRPEKFGGDLTVNSYEELESLFKNKELHPMDLKNAVAEELIKILEPIRKRLLEHHHHHH | soluble |
| MSLRRSLLLVDDDADHLAVLRCTLESCGFDVSLAPDGAAALALAHARAFDAVVLDIAMPGLSGWEVAERLRAAHGQSFRLVMLSANAEERHGPRGKEPDHDLFLMKPVELSALVDSLGKLLGLEWILSEGGGDTVLAQPRIDVSDSARTHVDRLKSLARIGHLRGLEAEIRSMQETDTGTAPLAARLFDCLDRCDLVAMRRVLEGIEGHHHHHH | not soluble |
| MSSFHATTIFAVQHKGRSAMSGDGQVTFGQAVVMKHTARKVRKLFNGKVLAGFAGSVADAFTLFEKFEAKLEEYNGNLKRAAVELAKEWRSDKVLRKLEAMLIVMNQDTLLLVSGTGEVIEPDDGILAIGSGGNYALAAGRALKKHAGESMSASEIARAALETAGEICVYTNDQIILEELE | soluble |
| GMQLTSENYYSQEANKEYMSVSGYKDFAGTYGKMPCEFYGMEKLNGRWEDEKSTALLVGSYVDSYFEGSLDQFKKDNPEIFTQKGELKANFKQAEEIIARIERDEYFMKYMSGQKQVIMTGELFGAKWKIKMDSYIPGVAIVDLKVMASITDLKWVKDIGYLDFVRYWGYDIQGAVYQEIVRQNTGEKLPFFIAGATKQTEPDIRIIHVTDNYLQEALHMVEMNMPRILRVKNGEVEPDRCELCDCCRHNRVLKKPISIMDLTAGI | soluble |
| MRVEPLPGVPAATVDTDGERLLAVADYHAGIEAGLRYEGVELQSAAEARRERLLTCLRRARADRLVVIGDLGHAIGDPFADERAELETLFDALDVPVTLVKGNHD | not soluble |
| MRVEIVPIRPEFDAEICQIIQSVGAEFGAIGEGFGPSDAEVLAMSQYYREQDRSAYFVALLEGKVVGGGGIAPFAGHTDLCELKKLFLLPTSRGHGVGRALSEHCLNFAKQQGYTKCYLDTLSSMTQAIKLYQQLGFEHLTQPMAGTEHNGCDVWMLKSLN | not soluble |
| MGAGEKGIVEKEGYQLDTRRQAQAAYPRIKVLVIHYTADDFDSSLATLTDKQVSSHYLVPAVPPRYNGKPRIWQLVPEQELAWHAGISAWRGATRLNDTSIGIELENRGWQKSAGVKYFAPFEPAQIQALIPLAKDIIARYHIKPENVVAHADIAPQRKDDPGPLFPWQQLAQQGIGAWPDAQRVNFYLAGRAPHTPVDTASLLELLARYGYDVKPDMTPREQRRVIMAFQMHFRPTLYNGEADAETQAIAEALLEKYGQD | soluble |
| RAETAVQRTEDRYHNLVDTAPIPILLFDRDWKALYANEAAIAFLDADSFTEIAGKKASDFLHPDERDAARKRFQRLMREGVSVPEREYRVMTAEGEVKTATIATAPGYYRGEQVAQAMVYR | soluble |
| ENLMQVYQQARLSNPELRKSAADRDAAFEKINEARSPLLPQLGLGADYTYSNGYRDANGINSNATSASLQLTQSIFDMSKWRALTLQEKAAGIQDVTYQTDQQTLILNTATAYFNVLNAIDVLSYTQAQKEAIYRQLDQTTQRFNVGLVAITDVQNARAQYDTVLANELTARNNLDNAVEQLRQITGNYYPELAALNVENFKTDKPQPVNALLKEAEKRNLSLLQARLSQDLAREQIRQAQDGHLPTLDLTASTGISDTSYSGSKTRGAAGTQYDDSNMGQNKVGLSFSLPIYQGGMVNSQVKQAQYNFVGASEQLESAHRSVVQTVRSSFNNINASISSINAYKQAVVSAQSSLDAMEAGYSVGTRTIVDVLDATTTLYNAKQELANARYNYLINQLNIKSALGTLNEQDLLALNNALSKPVSTNPENVAPQTPEQNAIADGYAPDSPAPVVQQTSARTTTSNGHNPFRN | soluble |
| MSHLVYVSRVVAAPIERVWPHLRDFNGLSAWHPGVADSRLEEGGRDDAPGTVRFLSLNPSGYVRERLLMLDDAGRSLRYAIIETDLPMRDYVAGVDLCPVTEGGGTFAQWWADFDVVAGANRDEVARLVGEGVFAAGLQALDQYLRGRQALEHHHHHH | not soluble |
| MEGNHEEPQGGLEELSGRWHSVALASNKSDLIKPWGHFRVFIHSMSAKDGNLHGDILIPQDGQCEKVSLTAFKTATSNKFDLEYWGHNDLYLAEVDPKSYLILYMINQYNDDTSLVAHLMVRDLSRQQDFLPAFESVCEDIGLHKDQIVVLSDDDRCQGSRDLEHHHHHH | soluble |
| MGSDKIHHHHHHVSVSDAGNFDANDVAVTFGIDKVREAFEQRRSTLPPFAPYDEEPESERPKLKATPFSWRDPATIPPRKWLYGRHLIRKFLSLDIAPGGLGKSSVKIVEALAMTTGRNLLGKDCHEGPLNVWLYNLEDPAEETERRIHAAAQWFEIGPDDVGERLFVDSGREQPICIAEETDGGARIVRPVVEAVIEQLKDRRIDVLSIDPFVSSHAISENDNRAIDMVAKEWSRIADICDCAINLVHHVRKTNGAEVTAESSRGAVSLIGAARSVVVYNRMTKEEGERAGIEPRQLGFYFRTQNDKANLAPPEAADWFRMNNVDLPNGDSVGVACPWQWPDPFDGVSTWHLKEVQKRVSQGRYRADVRSAQWVGHVIANVLDIDLEKKAGRVKDILKQWLKNDMLREVEGTDEKRNVRKFVEVGTWHTD | not soluble |
| MENSDDIRLIVKIAQLYYEQDMTQAQIARELGIYRTTISRLLKRGRDQGMVTIAINYDYNENLWLEQQLKQKFGLKDVVVVSGNDEDEETQLAMMGLHGAQLLDRLLEPGDIVGFSWGRAVSALVENLPQAGQSRQLICVPIIGGPSGKLESRYHVNTLTYSAAAKLKGESHLADFPALLDNPLIRNGIMQSQHFKTISAYWDNLDIALVGIGSPAIRDGANWHAFYGGEESDDLNARQVAGDICSRFFDIHGAMVETNMSEKTLSIEMNKLKQARYSIGIAMSEEKYSGIIGALRGKYINCLVTNSSTAELLLK | soluble |
